Assay results as given in the supplement of paper PMC10567573.

B1: CLINT1 (parent)
chain: VVTSAREHIYDLRSLENYHFVDEH

Variants of: B1
Test: protein stability index of a GFP-peptide fusion (GPS, HEK-293T) (PSI 1-6); higher = more stable
Conditions: c terminus: a fixed tail appended
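Also: lentivirally expressed fusions sorted by FACS into six bins by GFP to DsRed ratio, PSI derived from sequencing read proportions per bin multiplied by bin number.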

Row | Variant | protein stability index
1 | VVTSAREHIYDLRSLENEHFVDEH [Y18E] | 4.26
2 | VVTSAREHIYDLRSLENIHFVDEH [Y18I] | 3
3 | VVTSAREHIYDLRSLENGHFVDEH [Y18G] | 3.78
4 | VVTSAREHIYDLRSLENLHFVDEH [Y18L] | 2.94
5 | VVTSAREHIYDLRSLENKHFVDEH [Y18K] | 3.6
6 | VVTSAREHIYDLRSLENTHFVDEH [Y18T] | 3.94
7 | VVTSAREHIYDLRSLENNHFVDEH [Y18N] | 4.48
8 | VVTSAREHIYDLRSLENDHFVDEH [Y18D] | 4.14
9 | VVTSAREHIYDLRSLENCHFVDEH [Y18C] | 3.3
10 | VVTSAREHIYDLRSLENFHFVDEH [Y18F] | 2.5
11 | VVTSAREHIYDLRSLENMHFVDEH [Y18M] | 2.88
12 | VVTSAREHIYDLRSLENHHFVDEH [Y18H] | 3.59
13 | VVTSAREHIYDLRSLENRHFVDEH [Y18R] | 3.72
14 | VVTSAREHIYDLRSLENSHFVDEH [Y18S] | 4.05
15 | VVTSAREHIYDLRSLENWHFVDEH [Y18W] | 2.94
16 | VVTSAREHIYDLRSLENPHFVDEH [Y18P] | 3.71
17 | VVTSAREHIYDLRSLENVHFVDEH [Y18V] | 3.24
18 | VVTSAREHIYDLRSLENQHFVDEH [Y18Q] | 3.87
19 | VVTSAREHIYDLRSLENYHFVDEC [H24C] | 2.3
20 | VVTSAREHIYDLRSLENYHFVDEL [H24L] | 2.22
21 | VVTSAREHIYDLRSLENYHFVDEQ [H24Q] | 3.39
22 | VVTSAREHIYDLRSLENYHFVDEW [H24W] | 2.98
23 | VVTSAREHIYDLRSLENYHFVDED [H24D] | 4.13
24 | VVTSAREHIYDLRSLENYHFVDEM [H24M] | 2.92

Row | Variant | protein stability index
25 | VVTSAREHIYDLRSLENYHFVDEN [H24N] | 3.5
26 | VVTSAREHIYDLRSLENYHFVDEG [H24G] | 3.55
27 | VVTSAREHIYDLRSLENYHFVDET [H24T] | 3.11
28 | VVTSAREHIYDLRSLENYHFVDEI [H24I] | 2.35
29 | VVTSAREHIYDLRSLENYHFVDER [H24R] | 2.78
30 | VVTSAREHIYDLRSLENYHFVDEV [H24V] | 2.38
31 | VVTSAREHIYDLRSLENYHFVDEK [H24K] | 3.21
32 | VVTSAREHIYDLRSLENYHFVDES [H24S] | 3.44
33 | VVTSAREHIYDLRSLENYHFVDEF [H24F] | 2.58
34 | VVTSAREHIYDLRSLENYHFVDEE [H24E] | 4.04
35 | VVTSAREHIYDLRSLENYHFVDEA [H24A] | 2.85
36 | VVTSAREHIYDLRSLENYHFVDEP [H24P] | 2.79
37 | VVTSAREHIYDLRSLENYHFVDEY [H24Y] | 2.32
38 | VVTSAREHIYDLRSLENYYFVDEH [H19Y] | 2.55
39 | VVTSAREHIYDLRSLENYDFVDEH [H19D] | 3.99
40 | VVTSAREHIYDLRSLENYIFVDEH [H19I] | 2.41
41 | VVTSAREHIYDLRSLENYAFVDEH [H19A] | 2.03
42 | VVTSAREHIYDLRSLENYPFVDEH [H19P] | 3
43 | VVTSAREHIYDLRSLENYVFVDEH [H19V] | 2.11
44 | VVTSAREHIYDLRSLENYFFVDEH [H19F] | 2.26
45 | VVTSAREHIYDLRSLENYLFVDEH [H19L] | 2.68
46 | VVTSAREHIYDLRSLENYQFVDEH [H19Q] | 3.12
47 | VVTSAREHIYDLRSLENYWFVDEH [H19W] | 1.6
48 | VVTSAREHIYDLRSLENYGFVDEH [H19G] | 3.16

Row | Variant | protein stability index
49 | VVTSAREHIYDLRSLENYNFVDEH [H19N] | 3.09
50 | VVTSAREHIYDLRSLENYRFVDEH [H19R] | 3.52
51 | VVTSAREHIYDLRSLENYCFVDEH [H19C] | 2.33
52 | VVTSAREHIYDLRSLENYSFVDEH [H19S] | 3.21
53 | VVTSAREHIYDLRSLENYTFVDEH [H19T] | 3.28
54 | VVTSAREHIYDLRSLENYMFVDEH [H19M] | 2.4
55 | VVTSAREHIYDLRSLENYKFVDEH [H19K] | 4.3
56 | VVTSAREHIYDLRSLENYEFVDEH [H19E] | 3.8
57 | VVTSAREHIYDLRSLENYHWVDEH [F20W] | 2.58
58 | VVTSAREHIYDLRSLENYHHVDEH [F20H] | 3.57
59 | VVTSAREHIYDLRSLENYHCVDEH [F20C] | 3.46
60 | VVTSAREHIYDLRSLENYHDVDEH [F20D] | 4.77
61 | VVTSAREHIYDLRSLENYHAVDEH [F20A] | 4.11
62 | VVTSAREHIYDLRSLENYHKVDEH [F20K] | 3.33
63 | VVTSAREHIYDLRSLENYHRVDEH [F20R] | 3.24
64 | VVTSAREHIYDLRSLENYHYVDEH [F20Y] | 3.24
65 | VVTSAREHIYDLRSLENYHSVDEH [F20S] | 3.79
66 | VVTSAREHIYDLRSLENYHPVDEH [F20P] | 3.96
67 | VVTSAREHIYDLRSLENYHGVDEH [F20G] | 3.54
68 | VVTSAREHIYDLRSLENYHNVDEH [F20N] | 3.77
69 | VVTSAREHIYDLRSLENYHTVDEH [F20T] | 2.99
70 | VVTSAREHIYDLRSLENYHVVDEH [F20V] | 3.71
71 | VVTSAREHIYDLRSLENYHEVDEH [F20E] | 3.97
72 | VVTSAREHIYDLRSLENYHQVDEH [F20Q] | 3.73

Row | Variant | protein stability index
73 | VVTSAREHIYDLRSLENYHMVDEH [F20M] | 3.26
74 | VVTSAREHIYDLRSLENYHLVDEH [F20L] | 4.22
75 | VVTSAREHIYDLRSLENYHIVDEH [F20I] | 3.43
76 | VVTSAREHIYDLRSLENYHFVDCH [E23C] | 1.64
77 | VVTSAREHIYDLRSLENYHFVDMH [E23M] | 1.9
78 | VVTSAREHIYDLRSLENYHFVDQH [E23Q] | 2.55
79 | VVTSAREHIYDLRSLENYHFVDHH [E23H] | 2.21
80 | VVTSAREHIYDLRSLENYHFVDWH [E23W] | 3.37
81 | VVTSAREHIYDLRSLENYHFVDLH [E23L] | 1.93
82 | VVTSAREHIYDLRSLENYHFVDDH [E23D] | 2.86
83 | VVTSAREHIYDLRSLENYHFVDVH [E23V] | 2.07
84 | VVTSAREHIYDLRSLENYHFVDPH [E23P] | 1.96
85 | VVTSAREHIYDLRSLENYHFVDKH [E23K] | 2.33
86 | VVTSAREHIYDLRSLENYHFVDGH [E23G] | 3.21
87 | VVTSAREHIYDLRSLENYHFVDYH [E23Y] | 1.26
88 | VVTSAREHIYDLRSLENYHFVDRH [E23R] | 1.72
89 | VVTSAREHIYDLRSLENYHFVDTH [E23T] | 2.2
90 | VVTSAREHIYDLRSLENYHFVDIH [E23I] | 2.54
91 | VVTSAREHIYDLRSLENYHFVDNH [E23N] | 1.96
92 | VVTSAREHIYDLRSLENYHFVDSH [E23S] | 2.36
93 | VVTSAREHIYDLRSLENYHFVDFH [E23F] | 2.51
94 | VVTSAREHIYDLRSLENYHFVDAH [E23A] | 2.64
